The values that follow come from patent publication US20240009137A1, “ORAL THERAPEUTIC DELIVERY” (ROYAL MELBOURNE INSTITUTE OF TECHNOLOGY, priority 2020, published 2024).

Where “and” joins values, the source holds several entries; their conditions need not be identical. Identical values can stand only once. Where only a bound is given, the exact number is not on record here.

A short description of data set [1]: Release of insulin from bulk cubic phase (A280 of supernatant; Ritger-Peppas and Higuchi fits). The data set is classed as physicochemical. On the procedure:
This mixture was then injected into a 1.5 mL Eppendorf tube and centrifuged at 1200 RPM for 1 min to achieve a flat surface. The height of this surface was measured to determine the diameter for subsequent surface area calculations. 150 μl of water was added on top of the cubic phase and immediately removed for T=0 time point. 150 μl of supernatant fluid was removed every 30 min over a 12 hour period for analysis and replaced with a further […] of water. A final reading was taken at 22 hour.
Mt, M0, k and n are the released quantity at time t, initial quantity encapsulated, fitting coefficient and fitting exponent, respectively. This allows for the coupling of multiple release mechanisms (e.g., diffusion-controlled, zero-order) where the diffusional exponent n, is indicative of the release mechanism and geometry of the interface and the fitting coefficient k reflects characteristics of both the matrix and the solute.
where Q, C0 and D are the released concentration per unit area, initial concentration per unit volume and the diffusion coefficient, respectively. Diffusion control dictates that the release profile against √t should be linear. […] The determined parameters were compared to those found during FRAP analysis (DFRAP).

Data set [2] can be described thus: Fluorescence recovery after photobleaching (FRAP), diffusion coefficient. The data set is classed as physicochemical. As to the method: FRAP was performed on a Nikon confocal microscope. […] A bleaching and background region of interest (ROI) was used to selectively photobleach an area of the cubic phase and the fluorescence recovery curve was recorded with time. The excitation/emission wavelengths used were 553/627 nm for the octadecyl rhodamine B chloride. […] […] The open source Matlab code frap_analysis_2p5 was used to determine diffusion coefficients μ from FRAP data.

The next data set addresses T1, chymotrypsin (Bos taurus, UniProt P00766).
T1 construct: purchased Sigma Aldrich (Australia)
Description: Enzymatic degradation of insulin by chymotrypsin followed by synchrotron CD (Dichroweb). It is filed as in vitro ADME. On the procedure: SR-CD measurements were conducted in the 170-350 nm region using the CD beamline of the synchrotron radiation source ASTRID2 at ISA, Centre for Storage Ring Facilities at Aarhus University (Denmark). Suprasil Quartz cells (Hellma GmbH & Co., Germany) of nominal 0.1 mm path length (actual calibrated path lengths=102.3 and […]), requiring an approximately 30 μl sample volume, were used for measurements at 37° C. in a temperature-regulated sample holder. […] The sample measurements were obtained at 1 nm increments in wavelength, 1 sec averaging time and 1 scan for each sample. Data were mildly smoothed with a 5-point moving mean in Matlab. The online service DichroWeb was used for secondary structure content analysis of the CD spectra using the CONTIN routine and the SP175 reference set.
Chymotrypsin, which is typically found in the small intestine, was utilized as a model enzyme.

The conditions of data set [3]: cited from earlier work.
Data set [4] is described as follows: Vancomycin in blood plasma (ELISA) after SC injection or oral capsule. It is filed as in vivo, Sprague Dawley rats. On the procedure:
Four male Sprague Dawley rats were used as controls. Each rat was anaesthetised with isoflurane followed by preparation of the saphenous vein. The rats were given 15 mg/kg of vancomycin via SC injection, immediately following this they were placed on a heat-mat until they regained consciousness, before being housed in pairs in boxes. Blood collection (150 μl) was taken via the saphenous vein at 0, 30-, 70-, 120-, 180-, 240- and 360-mins post-injection. The blood concentration of the protein in the blood was tested using the relevant ELISA kit for each of the proteins.
Eight male Sprague Dawley rats were used. Each rat was anaesthetised with isoflurane followed by preparation of the saphenous vein and the first blood collection (150 μl). An enteric capsule with a thick polymer coating of approximately 160 μm containing 15 mg/kg of vancomycin encapsulated in MO lipid cubic phase was then introduced via oral gavage into the rat stomach. Immediately following this they were placed on a heat-mat until they regained consciousness, before being housed in pairs. Blood collection (150 μl) was taken via the saphenous vein at 0, 35-, 50-, 120-, 180-, 240- and 360-mins post-injection.
All data are analysed on a Clariostar Plate Reader to determine concentration against a standard curve for the relevant drug.
Concentrations provided in FIGS. 10-13 are the measured concentration of the drug in the blood plasma (determined using specific Elisa kits) and are in units of ng/ml. The initial drug concentration measured at the 0 time point has been set to zero in each case and other data scaled relative to this.

Where [5] appears, read: insulin in water 0.2 mg/ml, chymotrypsin 0.02 mg/ml, time 0 min.
The mark [6] stands for this setting: insulin in water 0.2 mg/ml, chymotrypsin 0.02 mg/ml, time 2 min.
[7] abbreviates: insulin in water 0.2 mg/ml, chymotrypsin 0.02 mg/ml, time 12 min.
The mark [8] stands for this setting: oral enteric capsule, MO cubic phase, 15 mg/kg.

One may read the bioavailability as dose-corrected exposure relative to a reference, in per cent.

On to “Insulin: human recombinant insulin (Sigma Aldrich); FITC labelled insulin used for FRAP; free or encapsulated in MO or PT cubic phase”, for which the “insulin released over the first two hours” value is “approximately 15%” in data set [1] (from MO bulk cubic phase) and “approximately 25%” in data set [1] (from PT bulk cubic phase). Further, the “release over a 24 h period” value in data set [1] (from MO bulk cubic phase) is on record as “approximately 50%”; in data set [1] (from PT bulk cubic phase) it was 60%. The “insulin released over 2-hour time period” value in data set [1] (from the cubic phase (lipid not specified)) was “approximately 20%”. Moreover, the “k, fitting coefficient (Ritger-Peppas model)” value in data set [1] (insulin release from MO) was determined as 0.88 ± 0.06. Moreover, the “time to 20% release” value in data set [1] (release from MO bulk cubic phase into aqueous sink) is reported as around 4 h; in data set [1] (release from PT bulk cubic phase into aqueous sink) it was around 2 h. The “Diffusion Coefficient” value in data set [2] (MO QII^D phase at the water interface (DFRAP)) was 2.89 ×10^−6 cm^2 s^−1; in data set [2] (PT QII^D phase at the water interface (DFRAP)), 4.36 ×10^−6 cm^2 s^−1; in data set [2] (in MO QII^D bulk cubic phase (insulin: FITC labelled, 5 mg/ml)), 2.29 ×10^−6 cm^2 s^−1; in data set [2] (in PT QII^D bulk cubic phase (insulin: FITC labelled, 5 mg/ml)), 4.17 ×10^−6 cm^2 s^−1; in data set [2] (in solution (free, FITC labelled insulin)), 6.56 ×10^−6 cm^2 s^−1; in data set [2] (in solution (free, FITC labelled insulin), listed as insulin), 6.6 ×10^−6 cm^2 s^−1. Also, the “diffusion coefficient higher at the interface compared to in the bulk” value in data set [2] (stated for both lipids (MO and PT)) is listed as “approximately 15%”. For the same compound, the “far UV CD spectrum, secondary structure” value with chymotrypsin (insulin 0.2 mg/ml encapsulated in PT cubic phase, 30 min after addition of chymotrypsin) was “still largely a-helical”; in the data set with chymotrypsin (insulin 0.2 mg/ml in water, 30 min after addition of chymotrypsin), “largely unordered”; with chymotrypsin (insulin encapsulated in PT cubic phase, 2 hours after addition of chymotrypsin), “retention of a-helical structures”. Also, in the data set with chymotrypsin (insulin 0.5 mg/ml in MO bulk cubic phase, 132 min after addition of chymotrypsin 0.05 mg/ml), the “near-UV CD minimum at 270 nm” value was “may still be observed”. Moreover, the “duration of protection against enzymatic degradation after addition of chymotrypsin” value with chymotrypsin (insulin in lipid nanocarrier in the form of a mesophase) is given as “at least 2 hours”. Also, the “time by which the near-UV CD minimum at 270 nm has essentially disappeared” value in the data set with chymotrypsin (insulin in solution 0.5 mg/ml, chymotrypsin 0.05 mg/ml) is given as at most 9 min. Moreover, the “Unordered(%)” value is given as 8% with chymotrypsin (setting [5]) and 41% in the data set with chymotrypsin (setting [7]). In addition, the “β-sheet(%)” value is listed as 0% in the data set with chymotrypsin (setting [5]); 0% with chymotrypsin (setting [6]); 2% with chymotrypsin (insulin in water 0.2 mg/ml, chymotrypsin 0.02 mg/ml, time 6 min). Also, the “β-turns(%)” value with chymotrypsin (setting [5]) amounted to 3%; in the data set with chymotrypsin (setting [6]), 9%. In the data set with chymotrypsin (setting [7]), the “α-helix(%)” value is 41% and 41.2%. In the data set with chymotrypsin (insulin in water, no protective matrix, chymotrypsin added), the “time to complete degradation” value is “less than 35 min”. Moreover, the “diffusion coefficient in water” value in data set [3] (previously provided in the literature) is 1.5 ×10^−6 cm^2 s^−1.
Regarding `CC(C)CCCC(C)CCCC(C)CCCC(C)(O)C(O)CO` (stereo not shown) [PT, phytantriol], the lipid self-diffusion coefficient in data set [3] (measured using NMR in a previous study) was 0.3 ×10^−6 cm^2 s^−1.
Regarding `CN[C@H](CC(C)C)C(=O)N[C@H]1C(=O)N[C@@H](CC(N)=O)C(=O)N[C@H]2C(=O)N[C@H]3C(=O)N[C@H](C(=O)N[C@H](C(=O)O)c4cc(O)cc(O)c4-c4cc3ccc4O)[C@H](O)c3ccc(c(Cl)c3)Oc3cc2cc(c3O[C@@H]2O[C@H](CO)[C@@H](O)[C@H](O)[C@H]2O[C@H]2C[C@](C)(N)[C@H](O)[C@H](C)O2)Oc2ccc(cc2Cl)[C@H]1O` [vancomycin], in data set [4] (SC injection 15 mg/kg), the “time by which baseline values are reached” value was at most 180 min. In addition, the entries for the “time of maximum plasma concentration” value in data set [4] (SC injection 15 mg/kg) and in data set [4] (setting [8]) were 30 min and 50 min, respectively. The “maximum drug concentration in blood plasma” value in data set [4] (SC injection 15 mg/kg, four rats) is “approximately 1500 ng/ml”; in data set [4] (oral enteric capsule (approx. 160 μm coating), MO cubic phase, 15 mg/kg, range over rats), 790 to 960 ng/mL. For the same compound, the bioavailability in data set [4] (male, Sprague-Dawley, rat, plasma, oral enteric capsule vs SC, 15 mg/kg, read-out: overall bioavailability as % of that following SC injection) came out at 73.9%. In addition, in data set [4] (oral enteric capsule vs SC, 15 mg/kg), the “maximum drug plasma concentration as % of that following SC injection” value worked out at 57%. In addition, the “time by which baseline drug concentrations are reached” value in data set [4] (setting [8]) is reported as at most 180 min.
